According to publication PMC9482650, “Quantitative fragmentomics allow affinity mapping of interactomes” (Nature Communications, 2022):

Tests used:
Experiment in all cases: holdup assay
Design in all cases: key: below the threshold = too weak to quantify, mostly under pKd 3.1 to 4
Conditions in all cases: plain residues with an end cap or a label only (N-terminal biotin on a linker: ado-ado)
[1] = molecular target: TJP1_3, Q07157
[2] = molecular target: T1, APBA2_1, Q99767
T1 sequence (Q99767 563-664, limits assumed, looked up): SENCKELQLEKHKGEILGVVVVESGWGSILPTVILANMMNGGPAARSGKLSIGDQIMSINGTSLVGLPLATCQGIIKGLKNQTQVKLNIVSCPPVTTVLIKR

[3] = molecular target: GORASP1, Q9BQQ3
Chain of GORASP1, Q9BQQ3 (Q9BQQ3 1-208): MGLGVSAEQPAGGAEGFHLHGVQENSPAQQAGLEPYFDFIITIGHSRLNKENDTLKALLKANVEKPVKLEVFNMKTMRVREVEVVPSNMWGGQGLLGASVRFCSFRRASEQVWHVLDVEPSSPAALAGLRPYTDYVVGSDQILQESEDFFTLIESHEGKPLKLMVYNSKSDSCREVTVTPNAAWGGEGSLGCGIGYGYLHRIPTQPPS

[4] = molecular target: NHERF2_2, Q15599
Chain of NHERF2_2, Q15599 (Q15599 142-238): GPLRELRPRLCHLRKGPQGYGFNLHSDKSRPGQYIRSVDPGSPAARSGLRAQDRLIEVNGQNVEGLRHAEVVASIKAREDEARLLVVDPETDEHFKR

[5] = molecular target: T2, SNTG2, Q9NY99
T2 sequence (Q9NY99 68-166, limits assumed, looked up): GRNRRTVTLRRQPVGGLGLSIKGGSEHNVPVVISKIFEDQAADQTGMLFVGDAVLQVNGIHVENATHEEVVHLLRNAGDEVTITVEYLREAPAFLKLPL

[6] = molecular target: MAGI1_1, Q96QZ7
Chain of MAGI1_1, Q96QZ7 (Q96QZ7 1-106): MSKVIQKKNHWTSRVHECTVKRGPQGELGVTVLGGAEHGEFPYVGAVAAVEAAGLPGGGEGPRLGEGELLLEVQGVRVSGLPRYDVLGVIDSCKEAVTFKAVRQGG

[7] = molecular target: FRMPD2_2, Q68DX3
Chain of FRMPD2_2, Q68DX3 (Q68DX3 944-1038): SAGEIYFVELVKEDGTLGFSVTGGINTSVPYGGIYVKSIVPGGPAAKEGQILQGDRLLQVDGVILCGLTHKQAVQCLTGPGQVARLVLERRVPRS

[8] = molecular target: HTRA2, O43464
Chain of HTRA2, O43464 (O43464 355-458): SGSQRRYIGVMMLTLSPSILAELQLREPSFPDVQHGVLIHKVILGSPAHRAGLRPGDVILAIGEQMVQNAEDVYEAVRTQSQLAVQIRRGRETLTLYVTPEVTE

[9] = molecular target: T3, NHERF3_1, Q5T2W1
T3 sequence (Q5T2W1 4-100, limits assumed, looked up): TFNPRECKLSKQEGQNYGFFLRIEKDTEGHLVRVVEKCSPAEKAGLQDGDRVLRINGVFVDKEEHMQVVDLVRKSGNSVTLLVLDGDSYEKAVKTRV

[10] = molecular target: T4, PARD3B_1, Q8TEW8
T4 sequence (Q8TEW8 196-299, limits assumed, looked up): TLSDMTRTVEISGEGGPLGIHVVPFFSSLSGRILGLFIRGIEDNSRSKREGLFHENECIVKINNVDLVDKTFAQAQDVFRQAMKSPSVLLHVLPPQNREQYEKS

[11] = molecular target: GRIP2_6, Q9C0E4
Chain of GRIP2_6, Q9C0E4 (Q9C0E4 648-740): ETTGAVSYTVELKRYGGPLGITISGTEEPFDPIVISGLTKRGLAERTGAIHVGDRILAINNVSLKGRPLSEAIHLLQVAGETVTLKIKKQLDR

[12] = molecular target: GRIP2_4, Q9C0E4
Chain of GRIP2_4, Q9C0E4 (Q9C0E4 446-548): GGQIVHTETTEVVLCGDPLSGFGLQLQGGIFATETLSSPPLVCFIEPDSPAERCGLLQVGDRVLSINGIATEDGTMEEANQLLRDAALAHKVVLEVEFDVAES

[13] = molecular target: T5, APBA1_2, Q02410
T5 sequence (Q02410 742-832, limits assumed, looked up): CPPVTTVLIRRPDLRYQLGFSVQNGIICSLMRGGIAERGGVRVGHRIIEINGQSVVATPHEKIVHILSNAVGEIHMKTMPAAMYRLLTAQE

[14] = molecular target: LNX1_2, Q8TBB1
Chain of LNX1_2, Q8TBB1 (Q8TBB1 371-470): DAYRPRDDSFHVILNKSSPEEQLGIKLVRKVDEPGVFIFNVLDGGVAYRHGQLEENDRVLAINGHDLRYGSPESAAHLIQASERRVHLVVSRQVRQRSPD

[15] = molecular target: GRIP2_3, Q9C0E4
Chain of GRIP2_3, Q9C0E4 (Q9C0E4 238-339): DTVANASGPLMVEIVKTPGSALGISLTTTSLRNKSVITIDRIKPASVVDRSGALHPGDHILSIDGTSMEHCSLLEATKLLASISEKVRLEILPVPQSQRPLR

[16] = molecular target: PARD3_3, Q8TEW0
Chain of PARD3_3, Q8TEW0 (Q8TEW0 582-685): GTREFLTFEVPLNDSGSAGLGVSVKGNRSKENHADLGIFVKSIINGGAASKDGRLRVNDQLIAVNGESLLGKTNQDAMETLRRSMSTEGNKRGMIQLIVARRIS

[17] = molecular target: T6, TIAM2, Q8IVF5
T6 sequence (Q8IVF5 885-986, limits assumed, looked up): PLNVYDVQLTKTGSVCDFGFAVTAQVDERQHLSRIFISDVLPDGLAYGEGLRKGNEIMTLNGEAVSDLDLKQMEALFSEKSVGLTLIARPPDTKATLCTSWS

[18] = molecular target: T7, MPDZ_10, O75970
T7 sequence (O75970 1624-1722, limits assumed, looked up): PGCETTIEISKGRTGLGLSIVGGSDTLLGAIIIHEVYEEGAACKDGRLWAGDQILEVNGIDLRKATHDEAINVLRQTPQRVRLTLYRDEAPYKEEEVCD

[19] = molecular target: GRIP2_5, Q9C0E4
Chain of GRIP2_5, Q9C0E4 (Q9C0E4 544-642): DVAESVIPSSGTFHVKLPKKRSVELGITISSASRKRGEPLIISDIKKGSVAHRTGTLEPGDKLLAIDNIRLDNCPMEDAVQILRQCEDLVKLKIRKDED

[20] = molecular target: CASK, O14936
Chain of CASK, O14936 (O14936 487-570): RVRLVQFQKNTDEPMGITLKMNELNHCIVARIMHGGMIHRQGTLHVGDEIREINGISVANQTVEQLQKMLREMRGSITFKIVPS

[21] = molecular target: LNX1_1, Q8TBB1
Chain of LNX1_1, Q8TBB1 (Q8TBB1 261-371): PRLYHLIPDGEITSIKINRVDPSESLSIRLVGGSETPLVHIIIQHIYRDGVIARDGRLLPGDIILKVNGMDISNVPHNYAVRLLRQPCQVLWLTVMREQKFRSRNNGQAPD

[22] = molecular target: T8, PDZRN3_1, Q9UPQ7
T8 sequence (Q9UPQ7 244-349, limits assumed, looked up): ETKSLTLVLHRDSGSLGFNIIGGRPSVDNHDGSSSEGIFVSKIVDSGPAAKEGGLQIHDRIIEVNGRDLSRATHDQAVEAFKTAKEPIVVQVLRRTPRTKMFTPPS

[23] = molecular target: FRMPD2_3, Q68DX3
Chain of FRMPD2_3, Q68DX3 (Q68DX3 1073-1166): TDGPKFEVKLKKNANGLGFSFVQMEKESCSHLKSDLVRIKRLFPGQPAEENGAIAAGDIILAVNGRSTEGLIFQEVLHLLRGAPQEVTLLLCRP

[24] = molecular target: T9, PTPN13_1, Q12923
T9 sequence (Q12923 1088-1188, limits assumed, looked up): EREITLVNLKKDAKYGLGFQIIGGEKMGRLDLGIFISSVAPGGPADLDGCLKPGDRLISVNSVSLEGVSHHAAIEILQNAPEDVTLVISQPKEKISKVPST

[25] = molecular target: T10, DLG3_3, Q92796
T10 sequence (Q92796 374-475, limits assumed, looked up): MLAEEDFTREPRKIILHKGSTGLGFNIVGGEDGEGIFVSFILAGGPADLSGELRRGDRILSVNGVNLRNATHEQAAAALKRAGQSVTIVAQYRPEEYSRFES

[26] = molecular target: Inadl_2, Q8NI35
Chain of Inadl_2, Q8NI35 (Q8NI35 238-335): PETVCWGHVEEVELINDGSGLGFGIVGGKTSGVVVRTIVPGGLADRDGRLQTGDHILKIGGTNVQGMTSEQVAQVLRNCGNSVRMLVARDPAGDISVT

[27] = molecular target: LAP2, Q96RT1
Chain of LAP2, Q96RT1 (Q96RT1 other isoform, or with tags, fused parts or gaps): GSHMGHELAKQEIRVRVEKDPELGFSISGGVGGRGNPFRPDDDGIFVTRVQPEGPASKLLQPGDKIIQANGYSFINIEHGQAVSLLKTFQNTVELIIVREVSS

Chain of TJP1_3, Q07157 (Q07157 416-512): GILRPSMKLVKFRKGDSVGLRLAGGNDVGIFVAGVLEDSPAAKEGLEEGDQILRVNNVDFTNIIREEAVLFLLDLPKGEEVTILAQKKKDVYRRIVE

B1: ADAM22, Q9P0K1 (peptide)
chain: QSARLWETSI
B1 was tested, and the pKd [1] was “below the threshold”, the pKd [2] was “below the threshold” and the pKd [3] was “below the threshold”. The pKd [4] was 3.83, the pKd [5] was 4.86 and the pKd [6] was “below the threshold”. For the same binder, the pKd [7] was 3.97, the pKd [8] was “below the threshold” and the pKd [9] was 4.88. For the same binder, the pKd [10] was 3.78, the pKd [11] was 3.84 and the pKd [12] was “below the threshold”. For the same binder, the pKd [13] was “below the threshold”, the pKd [14] was “below the threshold” and the pKd [15] was “below the threshold”. The pKd [16] was 3.74, the pKd [17] was 3.97 and the pKd [18] was “below the threshold”. For the same binder, the pKd [19] was “below the threshold”, the pKd [20] was “below the threshold” and the pKd [21] was 4.43. The pKd [22] was 4.87, the pKd [23] was “below the threshold” and the pKd [24] was “below the threshold”. For the same binder, the pKd [25] was 4.29, the pKd [26] was “below the threshold” and the pKd [27] was 3.96.

B2: FLVCR1, Q9Y5Y0 (peptide)
chain: MLSKQSESAI
In the case of B2, the pKd [1] is reported as “below the threshold”, the pKd [2] is reported as “below the threshold” and the pKd [3] is reported as “below the threshold”. The pKd [4] was “below the threshold”, the pKd [5] was 3.81 and the pKd [6] was “below the threshold”. For the same binder, the pKd [7] was “below the threshold”, the pKd [8] was “below the threshold” and the pKd [9] was 3.81. For the same binder, the pKd [10] was 3.47, the pKd [11] was “below the threshold” and the pKd [12] was “below the threshold”. For the same binder, the pKd [13] was “below the threshold”, the pKd [14] was “below the threshold” and the pKd [15] was “below the threshold”. The pKd [16] was “below the threshold”, the pKd [17] was “below the threshold” and the pKd [18] was “below the threshold”. For the same binder, the pKd [19] was “below the threshold”, the pKd [20] was “below the threshold” and the pKd [21] was 3.52. The pKd [22] was 3.78, the pKd [23] was “below the threshold” and the pKd [24] was “below the threshold”. The pKd [25] was “below the threshold”, the pKd [26] was “below the threshold” and the pKd [27] was “below the threshold”.

B3: SLC2A7, Q6PXP3 (peptide)
chain: TASPAKETSF
With B3 the pKd [1] was “below the threshold”, the pKd [2] was “below the threshold” and the pKd [3] was “below the threshold”. For the same binder, the pKd [4] was 4.66, the pKd [5] was “below the threshold” and the pKd [6] was “below the threshold”. The pKd [7] was “below the threshold”, the pKd [8] was “below the threshold” and the pKd [9] was 4.95. For the same binder, the pKd [10] was 3.96, the pKd [11] was “below the threshold” and the pKd [12] was “below the threshold”. The pKd [13] was “below the threshold”, the pKd [14] was “below the threshold” and the pKd [15] was “below the threshold”. For the same binder, the pKd [16] was “below the threshold”, the pKd [17] was 3.63 and the pKd [18] was “below the threshold”. The pKd [19] was “below the threshold”, the pKd [20] was “below the threshold” and the pKd [21] was “below the threshold”. The pKd [22] was “below the threshold”, the pKd [23] was “below the threshold” and the pKd [24] was “below the threshold”. For the same binder, the pKd [25] was “below the threshold”, the pKd [26] was “below the threshold” and the pKd [27] was “below the threshold”.

B4: RAB9A, P51151 (peptide)
chain: RKPKPSSSCC
For B4, the pKd [1] was “below the threshold”, the pKd [2] was “below the threshold” and the pKd [3] was “below the threshold”. The pKd [4] was “below the threshold”, the pKd [5] was “below the threshold” and the pKd [6] was “below the threshold”. For the same binder, the pKd [7] was “below the threshold”, the pKd [8] was “below the threshold” and the pKd [9] was 3.61. The pKd [10] was “below the threshold”, the pKd [11] was “below the threshold” and the pKd [12] was “below the threshold”. The pKd [13] was “below the threshold”, the pKd [14] was “below the threshold” and the pKd [15] was “below the threshold”. The pKd [16] was “below the threshold”, the pKd [17] was 3.8 and the pKd [18] was “below the threshold”. For the same binder, the pKd [19] was “below the threshold”, the pKd [20] was “below the threshold” and the pKd [21] was “below the threshold”. The pKd [22] was “below the threshold”, the pKd [23] was “below the threshold” and the pKd [24] was “below the threshold”. For the same binder, the pKd [25] was “below the threshold”, the pKd [26] was “below the threshold” and the pKd [27] was “below the threshold”.

B5: ABCC6, O95255 (peptide)
chain: YRLAQESGLV
For B5, the pKd [1] was “below the threshold”, the pKd [2] was “below the threshold” and the pKd [3] was “below the threshold”. The pKd [4] was “below the threshold”, the pKd [5] was 3.61 and the pKd [6] was “below the threshold”. The pKd [7] was “below the threshold”, the pKd [8] was “below the threshold” and the pKd [9] was 3.76. The pKd [10] was 4.13, the pKd [11] was “below the threshold” and the pKd [12] was “below the threshold”. The pKd [13] was “below the threshold”, the pKd [14] was “below the threshold” and the pKd [15] was “below the threshold”. The pKd [16] was “below the threshold”, the pKd [17] was “below the threshold” and the pKd [18] was “below the threshold”. The pKd [19] was “below the threshold”, the pKd [20] was “below the threshold” and the pKd [21] was “below the threshold”. The pKd [22] was “below the threshold”, the pKd [23] was “below the threshold” and the pKd [24] was “below the threshold”. The pKd [25] was “below the threshold”, the pKd [26] was “below the threshold” and the pKd [27] was “below the threshold”.
